Numbering of substitutions follows the chain as printed. Each block holds one binder with its values, some of them ahead of it.
Experiments:
Latent Activin A [1] = target: T1, Latent Activin A (human, UniProt P08476 21-426, limits assumed); assay: ELISA dose-response, coated antigen
T1 construct: also called INHBA latent
T1 sequence: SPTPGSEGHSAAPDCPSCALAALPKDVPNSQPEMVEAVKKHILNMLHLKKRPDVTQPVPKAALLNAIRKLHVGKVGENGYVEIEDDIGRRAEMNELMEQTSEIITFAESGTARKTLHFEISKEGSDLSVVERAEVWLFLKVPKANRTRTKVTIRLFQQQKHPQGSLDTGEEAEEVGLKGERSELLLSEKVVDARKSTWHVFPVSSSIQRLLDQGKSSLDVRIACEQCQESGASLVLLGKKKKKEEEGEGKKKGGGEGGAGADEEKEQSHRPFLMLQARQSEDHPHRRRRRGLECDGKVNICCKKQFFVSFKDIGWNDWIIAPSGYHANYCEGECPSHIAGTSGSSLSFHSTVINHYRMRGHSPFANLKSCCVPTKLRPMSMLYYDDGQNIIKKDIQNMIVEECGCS
Experimental: (§1) Antibodies were re-expressed in 40 mL cultures of Expi293 cells and purified using protein G magnetic sepharose beads (Cytiva, Marlborough, MA) to provide larger quantities for secondary screening. Secondary screening included dose responses in both functional assays described above (SMAD nuclear localization and fibroblast activations assays) as well as in binding assays to the same antigens listed in Table 3. Plates were coated with 25 μL of 3 μg/mL antigen in 384-well Maxisorp plates overnight at 4° C. with agitation. The next day, the samples in the plates were blocked with 70 μL blocking buffer (PBS+1% BSA+0.1% Tween-20) for 2 hours at room temperature. Plates were then washed three times with 100 μL of wash buffer (PBS+0.1% Tween-20). Primary antibodies in Expi293 expression medium were diluted 1:3 in blocking buffer, 25 μL added per well, and the plates were incubated for an hour at room temperature with agitation. Plates were then washed three times and 25 μL of secondary antibody (goat anti-Human IgG, HRP conjugated; Jackson Immunoresearch) diluted 1:5000 in blocking buffer was added for 30 minutes at room temperature. The wells in the plates were washed six times with wash buffer and TMB substrate was added followed by 1 M H3PO4.

Activin B [2] = target: T2, Activin B (Homo sapiens (Human), UniProt P09529 293-407); assay: ELISA dose-response, coated antigen
T2 construct: also called Mature Activin B; mature Activin B
T2 sequence: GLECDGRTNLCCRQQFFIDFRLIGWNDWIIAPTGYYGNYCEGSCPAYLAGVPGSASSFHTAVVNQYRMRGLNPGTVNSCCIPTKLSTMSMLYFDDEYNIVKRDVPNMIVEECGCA
Experimental: as §1

Mature Activin A [3] = target: T3, Mature Activin A (human, UniProt P08476 311-426); assay: ELISA dose-response, coated antigen
T3 construct: also called active Activin A; INHBA mature
T3 sequence: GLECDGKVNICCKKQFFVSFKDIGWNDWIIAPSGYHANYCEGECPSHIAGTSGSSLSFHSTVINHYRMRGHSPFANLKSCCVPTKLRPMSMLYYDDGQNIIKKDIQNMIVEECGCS
Experimental: as §1

Latent Activin A [4] = target: T1, Latent Activin A; assay: ELISA, coated antigen, OD450
Experimental: as §1

Inhibin A [5] = target: T4, Inhibin A (Homo sapiens (Human), UniProt P05111 233-366; P08476 311-426); assay: ELISA, coated antigen, OD450
T4 sequence 1: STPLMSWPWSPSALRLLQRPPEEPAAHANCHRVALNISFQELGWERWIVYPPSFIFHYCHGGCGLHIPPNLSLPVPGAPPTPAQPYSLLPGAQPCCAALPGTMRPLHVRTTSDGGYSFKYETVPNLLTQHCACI
T4 sequence 2: T3 sequence
Experimental: as §1

Activin B [6] = target: T2, Activin B; assay: ELISA, coated antigen, OD450
Experimental: as §1

Mature Activin A [7] = target: T3, Mature Activin A; assay: ELISA, coated antigen, OD450
Experimental: as §1

Inhibin A [8] = target: T4, Inhibin A; assay: ELISA, coated antigen, OD450; remark: listed apart in the source

EC50 (Latent Activin A [1]): 1 nM | EC50 (Activin B [2]): 0.27 nM | EC50 (Mature Activin A [3]): 0.03 nM
B1: AB854 (antibody, IgG1, V domains shown)
VH: EVQLVQSGAEVKKPGASVKVSCKASGYTFPSHYISWVRQAPGQGLEWMGGMNPITGHTIYAQKLQGRGTMTTDPSTSTAYMELRSLRSDDTAVYYCARDMRYDILPGRSYYYGMDVWGQGTTVTVSS
VL: ESALTQPASVSGSPGQSITISCTGTTGSIASNYVSWYQQHPGKAPKLMIYDTTNRPPGVSNRFSGSKSGNTASLTISGLQAEDEADYYCQSTERGRSDVIFGGGTKLTVL
notes: also called clone 854

EC50 (Latent Activin A [1]): 0.87 nM | EC50 (Activin B [2]): 0.49 nM | EC50 (Mature Activin A [3]): 0.42 nM
B3: AB731 (antibody, IgG1, V domains shown)
VH: QVQLQQPGTELVKPGASVKLSCKASGYTFTSYWMHWVKQRPGQGLEWIGNINPSNGGTNYNEKFKSKATLTVDKSSSTAYMQLSSLTSEDSAVYYCSITTVVAYWYFDVWGTGTTVTVSS
VL: ENVLTQSPAIMSASPGEKVTISCSASSSVSYMYWYQQKPGSSPKPWIFRTYNLASGVPARFSGSGSGTSYSLTISNMEAEDAATYYCQQRSSYPWTFGGGTKLEIK
notes: also called clone 731

fold-change of OD 450 over negative control (BSA) (Latent Activin A [4]): 6.66 fold | fold-change of OD 450 over negative control (BSA) (Inhibin A [5]): 0.74 fold | fold-change of OD 450 over negative control (BSA) (Activin B [6]): 0.84 fold | fold-change of OD 450 over negative control (BSA) (Mature Activin A [7]): 8.09 fold
B5: AB435 (antibody, IgG1, V domains shown)
VH: QVQLQESGPGLVKPSQTLSLTCTVSGYSLTDARIGVNWIRQPPGKGLEWIGYINPSGRTDYNPSLKSRVTMSVDTSKNQFSLKVNSVTAADTAVYYCARAGYPDVWGKGTTVTVSS
VL: EIVMTQSPATLSLSPGERATLSCRASQSIGTKLAWYQQKPGQAPRLLIYDASSRVPGIPARFSGSGSGTDFTLTISSLEPEDFAVYYCQQYGSSPPVYSFGGGTKVEIK

fold-change of OD 450 over negative control (BSA) (Latent Activin A [4]): 4.95 fold | fold-change of OD 450 over negative control (BSA) (Inhibin A [5]): 0.65 fold | fold-change of OD 450 over negative control (BSA) (Activin B [6]): 0.76 fold | fold-change of OD 450 over negative control (BSA) (Mature Activin A [7]): 6.63 fold
B7: AB449 (antibody, IgG1, V domains shown)
VH: B5 VH with Y27L, T30S, D31N, R33K, I34M, I53V, N54S, P55T, S56T, R58T
VL: DIQMTQSPSSVSASVGDRVTITCRASQGISRDLAWYQQKPGKAPKLLIYAASTLVSGVPSRFSGSGSGTDFTLTISSLQPEDFANYYCQQYVSAPPYTFGGGTKVEIK

fold-change of OD 450 over negative control (BSA) (Latent Activin A [4]): 5.82 fold | fold-change of OD 450 over negative control (BSA) (Inhibin A [5]): 0.46 fold | fold-change of OD 450 over negative control (BSA) (Activin B [6]): 0.87 fold | fold-change of OD 450 over negative control (BSA) (Mature Activin A [7]): 6.84 fold
B8: AB465 (antibody, IgG1, V domains shown)
VH: B5 VH with Y27A, L29V, T30S, D31N, I34T, T59I
VL: EIVMTQSPATLSLSPGERATLSCRASQTVSSHLAWYQQKPGQAPRLLIYDVSHRASGIPARFSGSGSGTDFTLTISSLEPEDFAVYYCQQYFTLPTFGGGTKVEIK

fold-change of OD 450 over negative control (BSA) (Latent Activin A [4]): 10.5 fold | fold-change of OD 450 over negative control (BSA) (Inhibin A [5]): 0.72 fold | fold-change of OD 450 over negative control (BSA) (Activin B [6]): 2.5 fold | fold-change of OD 450 over negative control (BSA) (Mature Activin A [7]): 9.41 fold
B9: AB433 (antibody, IgG1, V domains shown)
VH: B5 VH with Y27F, S28P, T30S, D31T, A32S, I34M, R58A
VL: EIVMTQSPATLSLSPGERATLSCRASQSVRTSLAWYQQKPGQAPRLLIYDTSIRAAGIPARFSGSGSGTDFTLTISSLEPEDFAVYYCQQYGNWHFGGGTKVEIK

Continued, binder first:

B2: AB357 (antibody, IgG1, V domains shown)
VH: B1 VH
VL: ESALTQPASVSGSPGQSITISCTGTDIRGMSVSWYQQHPGKAPKLMIYEVNQRPSGVSNRFSGSKSGNTASLTISGLQAEDEADYYCAAWDASVAGYVFGGGTKLTVL
fold-change of OD 450 over negative control (BSA) (Latent Activin A [4]): 6.59 fold | fold-change of OD 450 over negative control (BSA) (Inhibin A [5]): 0.77 fold | fold-change of OD 450 over negative control (BSA) (Activin B [6]): 2.44 fold | fold-change of OD 450 over negative control (BSA) (Mature Activin A [7]): 6.99 fold

B4: AB432 (antibody, IgG1, V domains shown)
VH: B5 VH with Y27V, T30S, D31N, A32V, I34M, I53V, R58S, T111L
VL: EIVMTQSPATLSLSPGERATLSCRASQSISSSQLAWYQQKPGQAPRLLIYGASTRATGIPARFSGSGSGTDFTLTISSLEPEDFAVYYCQQYNDRPRTFGGGTKVEIK
fold-change of OD 450 over negative control (BSA) (Latent Activin A [4]): 10.4 fold | fold-change of OD 450 over negative control (BSA) (Inhibin A [5]): 0.74 fold | fold-change of OD 450 over negative control (BSA) (Activin B [6]): 1.72 fold | fold-change of OD 450 over negative control (BSA) (Mature Activin A [7]): 8.86 fold | binding result (Inhibin A [8]): no binding (tested: 1.40-fold over BSA)

B6: AB352 (antibody, IgG1, V domains shown)
VH: B5 VH with Y27F, S28P, T30S, D31T, A32S, I34M, R58A
VL: EIVMTQSPATLSLSPGERATLSCRASQSVSTHLAWYQQKPGQAPRLLIYDATNRATGIPARFSGSGSGTDFTLTISSLEPEDFAVYYCLQYTNYPWTFGGGTKVEIK
fold-change of OD 450 over negative control (BSA) (Latent Activin A [4]): 15.2 fold | fold-change of OD 450 over negative control (BSA) (Inhibin A [5]): 0.61 fold | fold-change of OD 450 over negative control (BSA) (Activin B [6]): 2.03 fold | fold-change of OD 450 over negative control (BSA) (Mature Activin A [7]): 16.2 fold | binding result (Inhibin A [8]): no binding (tested: 1.40-fold over BSA)

B10: AB346 (antibody, IgG1, V domains shown)
VH: B5 VH with Y27F, S28P, T30S, D31T, A32S, I34M, R58A
VL: EIVMTQSPATLSLSPGERATLSCRASRSVSSDLAWYQQKPGQAPRLLIYDVSTRATGIPARFSGSGSGTDFTLTISSLEPEDFAVYYCQQYGSSLPPTFGGGTKVEIK
fold-change of OD 450 over negative control (BSA) (Latent Activin A [4]): 13.8 fold | fold-change of OD 450 over negative control (BSA) (Inhibin A [5]): 0.58 fold | fold-change of OD 450 over negative control (BSA) (Activin B [6]): 2.46 fold | fold-change of OD 450 over negative control (BSA) (Mature Activin A [7]): 14 fold

B11: AB372 (antibody, IgG1, V domains shown)
VH: QVTLRESGPALVKPTQTLTLTCTVSGFSLSTSGATVNWIRQPPGKALEWIGYITSSGRTVYNSALKSRLTISKDTSKNQVVLTMTNMDPVDTATYYCTTTKIVGATLRDYWGQGTLVTVSS
VL: DIVMTQSPDSLAVSLGERATINCKSSQSVLDTSTNRNYLAWYQQKPGQPPKLLIYGASIRAGGVPDRFSGSGSGTDFTLTISSLQAEDVAVYYCQQSYSHPPTFGGGTKVEIK
fold-change of OD 450 over negative control (BSA) (Latent Activin A [4]): 5.64 fold | fold-change of OD 450 over negative control (BSA) (Inhibin A [5]): 0.43 fold | fold-change of OD 450 over negative control (BSA) (Activin B [6]): 0.43 fold | fold-change of OD 450 over negative control (BSA) (Mature Activin A [7]): 7.16 fold

B12: AB363 (antibody, IgG1, V domains shown)
VH: B11 VH
VL: DIQMTQSPSSVSASVGDRVTITCRASQGISNDLAWYQQKPGKAPKLLIYDVSNRASGVPSRFSGSGSGTDFTLTISSLQPEDFANYYCQQYDNPPSFGGGTKVEIK
fold-change of OD 450 over negative control (BSA) (Latent Activin A [4]): 4.82 fold | fold-change of OD 450 over negative control (BSA) (Inhibin A [5]): 0.53 fold | fold-change of OD 450 over negative control (BSA) (Activin B [6]): 0.63 fold | fold-change of OD 450 over negative control (BSA) (Mature Activin A [7]): 7.63 fold

B13: AB338 (antibody, IgG1, V domains shown)
VH: EVQLVESGGGLVQPGGSLRLSCAASGFTASRNYMSWVRQAPGKGLELVASISGSGDYTYYPDSVKGRFTISRDNAKNSLYLQMNSLRAEDTAVYYCARSPRGPRLLGYYYGMDVWGQGTTVTVSS
VL: DIVMTQSPLSLPVTPGEPASISCRSSQSLLHSNEKNYLHWYLQKPGQSPQLLIYDASKRASGVPDRFSGSGSGTDFTLKISRVEAEDVGVYYCVQDLHTPFTFGGGTKVEIK
fold-change of OD 450 over negative control (BSA) (Latent Activin A [4]): 1.44 fold | fold-change of OD 450 over negative control (BSA) (Inhibin A [5]): 0.9 fold | fold-change of OD 450 over negative control (BSA) (Activin B [6]): 0.68 fold | fold-change of OD 450 over negative control (BSA) (Mature Activin A [7]): 1.94 fold
